According to patent publication US20210277068A1 (SHANXI KANGBAO BIOLOGICAL PRODUCT, published 2021):
Several values for one entry are separate records, joined by “and”; a condition that tells them apart may be missing. Equal entries are not always repeated. * marks the point of attachment. Stearoyl = CCCCCCCCCCCCCCCCCC(=O)*; Palmitoyl = CCCCCCCCCCCCCCCC(=O)*; Lauroyl = CCCCCCCCCCCC(=O)*; Octanoyl = CCCCCCCC(=O)*

T1: N39 (HIV-1, N-terminal acetyl (Ac-); C-terminal amide (-NH2))
T1 peptide: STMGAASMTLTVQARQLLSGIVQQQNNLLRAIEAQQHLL

B1: LP-52 (peptide)
peptide: Ac-WEQKIEELLKKAEEQQKKNEEELKKLEK(Palmitoyl)-NH2
B2: LP-65 (peptide)
peptide: Ac-IEELLKKAEEQQKKNEEELKKLEK(Palmitoyl)-NH2
SMILES: CCCCCCCCCCCCCCCC(=O)NCCCC[C@H](NC(=O)[C@H](CCC(=O)O)NC(=O)[C@H](CC(C)C)NC(=O)[C@H](CCCCN)NC(=O)[C@H](CCCCN)NC(=O)[C@H](CC(C)C)NC(=O)[C@H](CCC(=O)O)NC(=O)[C@H](CCC(=O)O)NC(=O)[C@H](CCC(=O)O)NC(=O)[C@H](CC(N)=O)NC(=O)[C@H](CCCCN)NC(=O)[C@H](CCCCN)NC(=O)[C@H](CCC(N)=O)NC(=O)[C@H](CCC(N)=O)NC(=O)[C@H](CCC(=O)O)NC(=O)[C@H](CCC(=O)O)NC(=O)[C@H](C)NC(=O)[C@H](CCCCN)NC(=O)[C@H](CCCCN)NC(=O)[C@H](CC(C)C)NC(=O)[C@H](CC(C)C)NC(=O)[C@H](CCC(=O)O)NC(=O)[C@H](CCC(=O)O)NC(=O)[C@@H](NC(C)=O)[C@@H](C)CC)C(N)=O
notes: N-terminally truncated, based on LP-52; 24 amino acids
B3: LP-63 (peptide)
peptide: Ac-QKIEELLKKAEEQQKKNEEELKKLEK(Palmitoyl)-NH2
SMILES: CCCCCCCCCCCCCCCC(=O)NCCCC[C@H](NC(=O)[C@H](CCC(=O)O)NC(=O)[C@H](CC(C)C)NC(=O)[C@H](CCCCN)NC(=O)[C@H](CCCCN)NC(=O)[C@H](CC(C)C)NC(=O)[C@H](CCC(=O)O)NC(=O)[C@H](CCC(=O)O)NC(=O)[C@H](CCC(=O)O)NC(=O)[C@H](CC(N)=O)NC(=O)[C@H](CCCCN)NC(=O)[C@H](CCCCN)NC(=O)[C@H](CCC(N)=O)NC(=O)[C@H](CCC(N)=O)NC(=O)[C@H](CCC(=O)O)NC(=O)[C@H](CCC(=O)O)NC(=O)[C@H](C)NC(=O)[C@H](CCCCN)NC(=O)[C@H](CCCCN)NC(=O)[C@H](CC(C)C)NC(=O)[C@H](CC(C)C)NC(=O)[C@H](CCC(=O)O)NC(=O)[C@H](CCC(=O)O)NC(=O)[C@@H](NC(=O)[C@H](CCCCN)NC(=O)[C@H](CCC(N)=O)NC(C)=O)[C@@H](C)CC)C(N)=O
notes: N-terminally truncated, based on LP-52; also called P63 with C16
B4: LP-91 (peptide)
peptide: Ac-WEQKIEELLKKAEEQQKKNEEELKK(Stearoyl)-NH2
B5: LP-89 (peptide)
peptide: Ac-KIEELLKKAEEQQKKNEEELKKLEK(Stearoyl)-NH2
SMILES: CCCCCCCCCCCCCCCCCC(=O)NCCCC[C@H](NC(=O)[C@H](CCC(=O)O)NC(=O)[C@H](CC(C)C)NC(=O)[C@H](CCCCN)NC(=O)[C@H](CCCCN)NC(=O)[C@H](CC(C)C)NC(=O)[C@H](CCC(=O)O)NC(=O)[C@H](CCC(=O)O)NC(=O)[C@H](CCC(=O)O)NC(=O)[C@H](CC(N)=O)NC(=O)[C@H](CCCCN)NC(=O)[C@H](CCCCN)NC(=O)[C@H](CCC(N)=O)NC(=O)[C@H](CCC(N)=O)NC(=O)[C@H](CCC(=O)O)NC(=O)[C@H](CCC(=O)O)NC(=O)[C@H](C)NC(=O)[C@H](CCCCN)NC(=O)[C@H](CCCCN)NC(=O)[C@H](CC(C)C)NC(=O)[C@H](CC(C)C)NC(=O)[C@H](CCC(=O)O)NC(=O)[C@H](CCC(=O)O)NC(=O)[C@@H](NC(=O)[C@H](CCCCN)NC(C)=O)[C@@H](C)CC)C(N)=O
B6: LP-51 (peptide)
peptide: Ac-LEANIEELLKKAEEQQKKNEEELKKLEK(Palmitoyl)-NH2
SMILES: CCCCCCCCCCCCCCCC(=O)NCCCC[C@H](NC(=O)[C@H](CCC(=O)O)NC(=O)[C@H](CC(C)C)NC(=O)[C@H](CCCCN)NC(=O)[C@H](CCCCN)NC(=O)[C@H](CC(C)C)NC(=O)[C@H](CCC(=O)O)NC(=O)[C@H](CCC(=O)O)NC(=O)[C@H](CCC(=O)O)NC(=O)[C@H](CC(N)=O)NC(=O)[C@H](CCCCN)NC(=O)[C@H](CCCCN)NC(=O)[C@H](CCC(N)=O)NC(=O)[C@H](CCC(N)=O)NC(=O)[C@H](CCC(=O)O)NC(=O)[C@H](CCC(=O)O)NC(=O)[C@H](C)NC(=O)[C@H](CCCCN)NC(=O)[C@H](CCCCN)NC(=O)[C@H](CC(C)C)NC(=O)[C@H](CC(C)C)NC(=O)[C@H](CCC(=O)O)NC(=O)[C@H](CCC(=O)O)NC(=O)[C@@H](NC(=O)[C@H](CC(N)=O)NC(=O)[C@H](C)NC(=O)[C@H](CCC(=O)O)NC(=O)[C@H](CC(C)C)NC(C)=O)[C@@H](C)CC)C(N)=O
B7: LP-81 (peptide)
peptide: Ac-WEQKIEELLKKAEEQQKKNEEELKKLEK(Lauroyl)-NH2
B8: LP-55 (peptide)
peptide: Ac-WEQKIEELLKKAEEQQKKNEEELKK(Palmitoyl)-NH2
SMILES: CCCCCCCCCCCCCCCC(=O)NCCCC[C@H](NC(=O)[C@H](CCCCN)NC(=O)[C@H](CC(C)C)NC(=O)[C@H](CCC(=O)O)NC(=O)[C@H](CCC(=O)O)NC(=O)[C@H](CCC(=O)O)NC(=O)[C@H](CC(N)=O)NC(=O)[C@H](CCCCN)NC(=O)[C@H](CCCCN)NC(=O)[C@H](CCC(N)=O)NC(=O)[C@H](CCC(N)=O)NC(=O)[C@H](CCC(=O)O)NC(=O)[C@H](CCC(=O)O)NC(=O)[C@H](C)NC(=O)[C@H](CCCCN)NC(=O)[C@H](CCCCN)NC(=O)[C@H](CC(C)C)NC(=O)[C@H](CC(C)C)NC(=O)[C@H](CCC(=O)O)NC(=O)[C@H](CCC(=O)O)NC(=O)[C@@H](NC(=O)[C@H](CCCCN)NC(=O)[C@H](CCC(N)=O)NC(=O)[C@H](CCC(=O)O)NC(=O)[C@H](Cc1c[nH]c2ccccc12)NC(C)=O)[C@@H](C)CC)C(N)=O
notes: LP-52 without the C-terminal LEK
B9: LP-92 (peptide)
peptide: Ac-IEELLKKAEEQQKKNEEELKK(Stearoyl)-NH2
SMILES: CCCCCCCCCCCCCCCCCC(=O)NCCCC[C@H](NC(=O)[C@H](CCCCN)NC(=O)[C@H](CC(C)C)NC(=O)[C@H](CCC(=O)O)NC(=O)[C@H](CCC(=O)O)NC(=O)[C@H](CCC(=O)O)NC(=O)[C@H](CC(N)=O)NC(=O)[C@H](CCCCN)NC(=O)[C@H](CCCCN)NC(=O)[C@H](CCC(N)=O)NC(=O)[C@H](CCC(N)=O)NC(=O)[C@H](CCC(=O)O)NC(=O)[C@H](CCC(=O)O)NC(=O)[C@H](C)NC(=O)[C@H](CCCCN)NC(=O)[C@H](CCCCN)NC(=O)[C@H](CC(C)C)NC(=O)[C@H](CC(C)C)NC(=O)[C@H](CCC(=O)O)NC(=O)[C@H](CCC(=O)O)NC(=O)[C@@H](NC(C)=O)[C@@H](C)CC)C(N)=O
B10: LP-90 (peptide)
peptide: Ac-IEELLKKAEEQQKKNEEELKKLEK(Stearoyl)-NH2
B11: LP-88 (peptide)
peptide: Ac-EQKIEELLKKAEEQQKKNEEELKKLEK(Stearoyl)-NH2
SMILES: CCCCCCCCCCCCCCCCCC(=O)NCCCC[C@H](NC(=O)[C@H](CCC(=O)O)NC(=O)[C@H](CC(C)C)NC(=O)[C@H](CCCCN)NC(=O)[C@H](CCCCN)NC(=O)[C@H](CC(C)C)NC(=O)[C@H](CCC(=O)O)NC(=O)[C@H](CCC(=O)O)NC(=O)[C@H](CCC(=O)O)NC(=O)[C@H](CC(N)=O)NC(=O)[C@H](CCCCN)NC(=O)[C@H](CCCCN)NC(=O)[C@H](CCC(N)=O)NC(=O)[C@H](CCC(N)=O)NC(=O)[C@H](CCC(=O)O)NC(=O)[C@H](CCC(=O)O)NC(=O)[C@H](C)NC(=O)[C@H](CCCCN)NC(=O)[C@H](CCCCN)NC(=O)[C@H](CC(C)C)NC(=O)[C@H](CC(C)C)NC(=O)[C@H](CCC(=O)O)NC(=O)[C@H](CCC(=O)O)NC(=O)[C@@H](NC(=O)[C@H](CCCCN)NC(=O)[C@H](CCC(N)=O)NC(=O)[C@H](CCC(=O)O)NC(C)=O)[C@@H](C)CC)C(N)=O
B12: LP-62 (peptide)
peptide: Ac-EQKIEELLKKAEEQQKKNEEELKKLEK(Palmitoyl)-NH2
SMILES: CCCCCCCCCCCCCCCC(=O)NCCCC[C@H](NC(=O)[C@H](CCC(=O)O)NC(=O)[C@H](CC(C)C)NC(=O)[C@H](CCCCN)NC(=O)[C@H](CCCCN)NC(=O)[C@H](CC(C)C)NC(=O)[C@H](CCC(=O)O)NC(=O)[C@H](CCC(=O)O)NC(=O)[C@H](CCC(=O)O)NC(=O)[C@H](CC(N)=O)NC(=O)[C@H](CCCCN)NC(=O)[C@H](CCCCN)NC(=O)[C@H](CCC(N)=O)NC(=O)[C@H](CCC(N)=O)NC(=O)[C@H](CCC(=O)O)NC(=O)[C@H](CCC(=O)O)NC(=O)[C@H](C)NC(=O)[C@H](CCCCN)NC(=O)[C@H](CCCCN)NC(=O)[C@H](CC(C)C)NC(=O)[C@H](CC(C)C)NC(=O)[C@H](CCC(=O)O)NC(=O)[C@H](CCC(=O)O)NC(=O)[C@@H](NC(=O)[C@H](CCCCN)NC(=O)[C@H](CCC(N)=O)NC(=O)[C@H](CCC(=O)O)NC(C)=O)[C@@H](C)CC)C(N)=O
notes: N-terminally truncated, based on LP-52
B13: LP-82 (peptide)
peptide: Ac-WEQKIEELLKKAEEQQKKNEEELKKLEK(Octanoyl)-NH2
B14: LP-64 (peptide)
peptide: Ac-KIEELLKKAEEQQKKNEEELKKLEK(Palmitoyl)-NH2
SMILES: CCCCCCCCCCCCCCCC(=O)NCCCC[C@H](NC(=O)[C@H](CCC(=O)O)NC(=O)[C@H](CC(C)C)NC(=O)[C@H](CCCCN)NC(=O)[C@H](CCCCN)NC(=O)[C@H](CC(C)C)NC(=O)[C@H](CCC(=O)O)NC(=O)[C@H](CCC(=O)O)NC(=O)[C@H](CCC(=O)O)NC(=O)[C@H](CC(N)=O)NC(=O)[C@H](CCCCN)NC(=O)[C@H](CCCCN)NC(=O)[C@H](CCC(N)=O)NC(=O)[C@H](CCC(N)=O)NC(=O)[C@H](CCC(=O)O)NC(=O)[C@H](CCC(=O)O)NC(=O)[C@H](C)NC(=O)[C@H](CCCCN)NC(=O)[C@H](CCCCN)NC(=O)[C@H](CC(C)C)NC(=O)[C@H](CC(C)C)NC(=O)[C@H](CCC(=O)O)NC(=O)[C@H](CCC(=O)O)NC(=O)[C@@H](NC(=O)[C@H](CCCCN)NC(C)=O)[C@@H](C)CC)C(N)=O
notes: as for B12

Molecular target: T1, N39
Assay: circular dichroism of the 1:1 mixture with N39, 10 µM each in PBS pH 7.2

Binder	helix content of the complex [%]
B1	63.8
B2	63

Molecular target: T1, N39
Assay: circular dichroism temperature scan at 220 nm of the 1:1 mixture with N39, 10 µM each in PBS pH 7.2

Binder	Tm value of the complex
B1	79.1 °C
B3	> 70 °C
B4	61 °C
B2	> 70 °C and 72.1 °C
B5	70 °C
B6	72 °C
B7	74.1 °C
B8	63.1 °C
B9	55.1 °C
B10	71.1 °C
B11	76.5 °C
B12	> 70 °C
B13	65.1 °C
B14	> 70 °C
